# Article PMC5766498 (Nature Communications, 2018)
# Target: T1, Met1-linked diUb (M1-Ub2) (human, UniProt P0CG47 1-76; P0CG47 1-76)
# T1 construct: ubiquitin, human, first (distal) moiety of the linear diUb; ubiquitin, human, second (proximal) moiety, its Met1 joined to Gly76 of the first; Expressed from a human M1-Ub2 gene as one chain; source: E. coli Rosetta (DE3), pET26b, purified (heat step, ResourceS, Superdex75)
# Experiment: SPR; GST-fused RNF168 domains captured by immobilised anti-GST antibody on CM5 chip (1000-1500 RU); Ub2 species injected 60 s at 10 µL per min; HBS-P (10 mM HEPES-Na pH 7.4, 150 mM NaCl, 0.05% P20), 25 °C; steady-state fit, 1:1 model
# Conditions: both partners purified
row,Binder,Kd
1,"GST-tagged RNF168 UDM2 (residues 419-487) (domain or fragment, human, UniProt Q8IYW5 419-487, looked up, RNF168, human, residues 419-487 (UDM2); source: E. coli Rosetta (DE3), purified (Glutathione Sepharose)) EETEINFTQKLIDLEHLLFERHKQEEQDRLLALQLQKEVDKEQMVPNRQKGSPDEYHLRATSSPPDKVL",238 µM
2,"AEKRRRAMEEQLKSDEELARKLSIDINNFCEGSI (domain or fragment, human, UniProt Q8IYW5 161-194, looked up, RNF168, human, residues 161-194 (MIU1 alone); This construct is not in the methods' list of constructs; its limits stand in the results only; also called MIU1 alone; source: E. coli Rosetta (DE3), purified (Glutathione Sepharose)) [GST-tagged RNF168 MIU1 (residues 161-194)]",233 µM
3,"EETEINFTQKLIDLEHLLFERHKQEEQDRLLALQLQKEVDKEQM (domain or fragment, human, UniProt Q8IYW5 419-462, looked up, RNF168, human, residues 419-462 (UDM2ΔC); also called UAD–MIU2; source: E. coli Rosetta (DE3), purified (Glutathione Sepharose)) [GST-tagged RNF168 UDM2ΔC (residues 419-462)]",221 µM
4,"EETEINFTQKLIDLRHLLFERHKQEEQDRLLALQLQKEVDKEQM (domain or fragment, human, UniProt Q8IYW5 419-462, looked up, RNF168, human, residues 419-462 (UDM2ΔC) with E433R; source: E. coli Rosetta (DE3), purified (Glutathione Sepharose)) [GST-tagged RNF168 UDM2ΔC (E433R)]",214 µM
5,"EETEINFTQKLIDLEHLLFEAHKQEEQDRLLALQLQKEVDKEQM (domain or fragment, human, UniProt Q8IYW5 419-462, looked up, RNF168, human, residues 419-462 (UDM2ΔC) with R439A; source: E. coli Rosetta (DE3), purified (Glutathione Sepharose)) [GST-tagged RNF168 UDM2ΔC (R439A)]",495 µM
6,"EETEINFTQKLIDLEHLTFERHKQEEQDRLLALQLQKEVDKEQM (domain or fragment, human, UniProt Q8IYW5 419-462, looked up, RNF168, human, residues 419-462 (UDM2ΔC) with L436T; source: E. coli Rosetta (DE3), purified (Glutathione Sepharose)) [GST-tagged RNF168 UDM2ΔC (L436T)]",160 µM
7,"LFERHKQEEQDRLLALQLQKEVDKEQM (domain or fragment, human, UniProt Q8IYW5 436-462, looked up, RNF168, human, residues 436-462 (MIU2); source: E. coli Rosetta (DE3), purified (Glutathione Sepharose)) [GST-tagged RNF168 MIU2 (residues 436-462)]",235 µM
8,"GST-tagged RNF168 LRM1 (L116A)-UMI (domain or fragment, human, UniProt Q8IYW5 110-166, looked up, source: E. coli Rosetta (DE3), purified (Glutathione Sepharose)) LSKPGEARREYEEEISKVAAERRASEEEENKASEEYIQRLLAEEEEEEKRQAEKRRR",206 µM
9,"GST-tagged RNF168 LRM1-UMI (residues 110-166) (domain or fragment, human, UniProt Q8IYW5 110-166, looked up, Cloned into pCold-GST; also called N-terminal part of UDM1; source: E. coli Rosetta (DE3), purified (Glutathione Sepharose)) LSKPGELRREYEEEISKVAAERRASEEEENKASEEYIQRLLAEEEEEEKRQAEKRRR",231 µM
10,"GST-tagged RNF168 LRM1-UMI (L149A) (domain or fragment, human, UniProt Q8IYW5 110-166, looked up, source: E. coli Rosetta (DE3), purified (Glutathione Sepharose)) LSKPGELRREYEEEISKVAAERRASEEEENKASEEYIQRALAEEEEEEKRQAEKRRR",1150 µM
11,"GST-tagged RNF168 LRM1-UMI (S142A) (domain or fragment, human, UniProt Q8IYW5 110-166, looked up, source: E. coli Rosetta (DE3), purified (Glutathione Sepharose)) LSKPGELRREYEEEISKVAAERRASEEEENKAAEEYIQRLLAEEEEEEKRQAEKRRR",965 µM
12,"GST-tagged RNF168 LRM1 (Y120A)-UMI (domain or fragment, human, UniProt Q8IYW5 110-166, looked up, source: E. coli Rosetta (DE3), purified (Glutathione Sepharose)) LSKPGELRREAEEEISKVAAERRASEEEENKASEEYIQRLLAEEEEEEKRQAEKRRR",236 µM
13,"SEEEENKASEEYIQRLLAEEEEEEKRQAEKRRR (domain or fragment, human, UniProt Q8IYW5 134-166, looked up, Cloned into pCold-GST; source: E. coli Rosetta (DE3), purified (Glutathione Sepharose)) [GST-tagged RNF168 UMI (residues 134-166)]",306 µM

# Target: T1, Met1-linked diUb (M1-Ub2)
# Experiment: SPR; untagged LRM1-UMI or UDM2ΔC covalently immobilised on CM5 by amine coupling (10 mM sodium acetate pH 4.0 or 4.5); Ub2 species injected; HBS-P, 25 °C; steady-state fit, 1:1 model
# Conditions: both partners purified
row,Binder,Kd
1,"EETEINFTQKLIDLEHLLFERHKQEEQDRLLALQLQKEVDKEQM (domain or fragment, human, UniProt Q8IYW5 419-462, looked up, RNF168, human, residues 419-462 (UDM2ΔC); also called UDM2ΔC (untagged); UAD–MIU2; source: E. coli Rosetta (DE3), purified (Glutathione Sepharose, HRV3C cleavage, ResourceQ, Superdex75)) [untagged RNF168 UDM2ΔC (residues 419-462)]",145 µM
2,"untagged RNF168 LRM1-UMI (residues 110-166) (domain or fragment, human, UniProt Q8IYW5 110-166, looked up, Printed as untagged; also called LRM1–UMI (untagged); source: E. coli Rosetta (DE3), purified) LSKPGELRREYEEEISKVAAERRASEEEENKASEEYIQRLLAEEEEEEKRQAEKRRR",200 µM

# Target: T1, Met1-linked diUb (M1-Ub2)
# Experiment: pull-down; 100 µg His6-fused RNF168 on Ni-NTA beads, 15 µg Ub2 species, 25 mM Tris-HCl pH 8.0, 20 mM imidazole, 0.1% Triton X-100, 100 mM NaCl, on ice 2 h; SDS-PAGE, Coomassie (Supplementary Fig. 1a)
# Conditions: both partners purified
row,Binder,binding result
1,"His6-fused RNF168 UMI-MIU1 (residues 134-188) (domain or fragment, human, UniProt Q8IYW5 134-188, looked up, source: E. coli, purified (Ni-NTA, then as UDM2ΔC)) SEEEENKASEEYIQRLLAEEEEEEKRQAEKRRRAMEEQLKSDEELARKLSIDINN",binds
